In publication doi:10.1101/2025.05.23.655772 one finds Tm of the covalent complex and Kd data, which are given here for two substances.

Test [1] concerns the target ubiquitin-specific protease 5, wild type (human) (UniProt P45974). The test can be described thus: thermal shift assay.
Test [2] addresses catalytically inactive USP5 C335A (human) (UniProt P45974). The test can be described thus: FRET or BRET.

Sequence of catalytically inactive USP5 C335A (human) (P45974 whole entry C335A): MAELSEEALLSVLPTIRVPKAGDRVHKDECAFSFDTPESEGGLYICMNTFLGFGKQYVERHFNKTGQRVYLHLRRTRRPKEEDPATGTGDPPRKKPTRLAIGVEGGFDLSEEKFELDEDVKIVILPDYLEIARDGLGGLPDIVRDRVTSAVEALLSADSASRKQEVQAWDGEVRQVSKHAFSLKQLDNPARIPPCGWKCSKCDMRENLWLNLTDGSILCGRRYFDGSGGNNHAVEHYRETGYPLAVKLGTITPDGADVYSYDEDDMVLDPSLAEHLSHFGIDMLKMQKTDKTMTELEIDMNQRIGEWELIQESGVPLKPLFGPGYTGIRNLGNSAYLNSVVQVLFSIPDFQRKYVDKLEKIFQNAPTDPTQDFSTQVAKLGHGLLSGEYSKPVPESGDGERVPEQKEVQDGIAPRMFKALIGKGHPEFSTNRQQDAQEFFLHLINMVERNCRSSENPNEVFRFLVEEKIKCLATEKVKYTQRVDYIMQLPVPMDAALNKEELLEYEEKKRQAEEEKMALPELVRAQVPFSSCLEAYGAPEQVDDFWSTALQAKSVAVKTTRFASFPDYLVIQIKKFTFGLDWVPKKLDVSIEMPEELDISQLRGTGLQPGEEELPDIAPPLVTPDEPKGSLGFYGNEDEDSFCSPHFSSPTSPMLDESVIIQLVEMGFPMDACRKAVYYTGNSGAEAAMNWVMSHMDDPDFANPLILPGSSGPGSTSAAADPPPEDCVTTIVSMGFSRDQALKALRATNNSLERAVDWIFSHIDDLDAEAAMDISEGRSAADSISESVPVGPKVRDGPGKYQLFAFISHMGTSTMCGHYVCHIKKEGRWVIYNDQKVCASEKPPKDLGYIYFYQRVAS
Sequence of ubiquitin-specific protease 5, wild type (human) (P45974 whole entry): as the sequence (P45974 whole entry C335A) above, with A335C counted along it

Turning to “ISG15-PA, ISG15 propargylamide activity-based probe (from UniProt P05161 1-157)”, the Tm of the covalent complex in test [1] came to 57.6 °C.
Take “Cy5-labelled SDE2UBL (from UniProt Q6IQ49 1-77) (domain or fragment)”: the Kd in test [2] was determined as 1 µM.

In general, Kd refers to the free concentration of one partner at which half of the binding sites on the other are occupied at equilibrium, for simple one-to-one binding. Low values mean tighter binding, high ones weaker binding.
